Test results from patent publication US20230192896A1 (BIOVERATIV THERAPEUTICS, published 2023).

target: T1, non-activatable Factor X (FXn) (Homo sapiens (Human), UniProt P00742 41-488, single biotin on the C-terminal BioTag); experiment: BLI; class meaning: paragraph 285
T1 construct: also called BIIB-FX-015

Row | binding result | Binder
1 | binds | BIIB-12-1303 (antibody, V domains shown, IgG) VH: QVQLVESGGGVVQPGRSLRLSCAASGFTFSSYGMHWVRQAPGKGLEWVAVISYDGSNKYYADSVKGRFTISRDNSKNTLYLQMNSLRAEDTAVYYCARGPTSRLFQHWGQGTLVTVS VL: not shown
2 | binds | BIIB-12-1288 (antibody, V domains shown, IgG) VH: QVQLVQSGAEVKKPGASVKVSCKASGYTFTSYYMHWVRQAPGQGLEWMGIINPSGGSTSYAQKFQGRVTMTRDTSTSTVYMELSSLRSEDTAVYYCARGGANDYGSSSRWWYFDLWGRGTLVTVSS VL: not shown
3 | binds | BIIB-12-1295 (antibody, V domains shown, IgG) VH: QVQLVQSGAEVKKPGASVKVSCKASGYTFTSYYMVWVRQAPGQGLEWMGIINPSGGSTSYAQKFQGRVTMTRDTSTSTVYMELSSLRSEDTAVYYCARVGGATTGKIGYGMDVWGQGTTVTVSS VL: DIQMTQSPSSVSASVGDRVTITCRASQGISSWLAWYQQKPGKAPKLLIYAASNLQSGVPSRFSGSGSGTDFTLTISSLQPEDFATYYCQQAISLPITFGGGTKVEIK
4 | binds | BIIB-12-1298 (antibody, V domains shown, IgG) VH: QVQLVESGGGVVQPGRSLRLSCAASGFTFSSYGMHWVRQAPGKGLEWVAVISYDGSNKYYADSVKGRFTISRDNSKNTLYLQMNSLRAEDTAVYYCAKGGSDRRVGSWGQGTLVTVSS VL: DIQMTQSPSSVSASVGDRVTITCRASQGISSWLAWYQQKPGKAPKLLIYAASSLQSGVPSRFSGSGSGTDFTLTISSLQPEDFATYYCQQTNSLPITFGGGTKVEIK
5 | binds | BIIB-12-1316 (antibody, V domains shown, IgG) VH: QVQLVESGGGVVQPGRSLRLSCAASGFTFSSYGMHWVRQAPGKGLEWVAVISYDGSNKYYADSVKGRFTISRDNSKNTLYLQMNSLRAEDTAVYYCAKSGQYRAFDIWGQGTMVTVSS VL: DIQMTQSPSSVSASVGDRVTITCRASQGISSWLAWYQQKPGKAPKLLIYAASSLQSGVPSRFSGSGSGTDFTLTISSLQPEDFATYYCQQINNFPPTFGGGTKVEIK
6 | binds | BIIB-12-934 (antibody, V domains shown, IgG) VH: QVQLVESGGGVVQPGRSLRLSCAASGFTFSSYGMHWVRQAPGKGLEWVAVISYDGSNKYYADSVKGRFTISRDNSKNTLYLQMNSLRAEDTAVYYCARESGGHSYGMDVWGQGTTVTVSS VL: EIVLTQSPATLSVSPGERATLSCRASQSVSSNLAWYQQKPGQAPRLLIYGASTRATGIPARFSGSGSGTEFTLTISSLQSEDFAVYYCQQFNDHPITFGGGTKVEI
7 | binds | BIIB-12-935 (antibody, V domains shown, IgG) VH: QVQLVESGGGVVQPGRSLRLSCAASGFTFSSYGMHWVRQAPGKGLEWVAVISYDGSNKYYADSVKGRFTISRDNSKNTLYLQMNSLRAEDTAVYYCARELEYGHYGMDVWGQGTTVTVSS VL: not shown
8 | binds | BIIB-12-1306 (antibody, V domains shown, IgG) VH: QVQLQESGPGLVKPSQTLSLTCTVSGGSISSGGYYWSWIRQHPGKGLEWIGSIYYSGSTYYNPSLKSRVTISVDTSKNQFSLKLSSVTAADTAVYYCARGAGGSAPWGQGTLVTVSS VL: not shown
9 | binds | BIIB-12-936 (antibody, V domains shown, IgG) VH: not shown VL: EIVMTQSPATLSVSPGERATLSCRASQSVSSNLAWYQQKPGQAPRLLIYGASTRATGIPARFSGSGSGTEFTLTISSLQSEDFAVYYCQQSHNLPPTFGGGTKVEIK
10 | binds | BIIB-12-1302 (antibody, V domains shown, IgG) VH: QVQLVQSGAEVKKPGASVKVSCKASGYTFTNYGISWVRQAPGQGLEWMGWISAYNGNTNYAQKLQGRVTMTTDTSTSTAYMELRSLRSDDTAVYYCARARSDWRAFDIWGQGTMVTVSS VL: EIVMTQSPATLSVSPGERATLSCRASQSVSSNLAWYQQKPGQAPRLLIYGASTRATGIPARFSGSGSGTEFTLTISSLQSEDFAVYYCQQVNNLPLTFGGGTKVEIK
11 | binds | BIIB-12-1305 (antibody, V domains shown, IgG) VH: QVQLVESGGGVVQPGRSLRLSCAASGFTFSSYGMHWVRQAPGKGLEWVAVISYDGSNKYYADSVKGRFTISRDNSKNTLYLQMNSLRAEDTAVYYCAKLGGRWSSDFQHWGQGTLVTVSS VL: EIVLTQSPATLSLSPGERATLSCRASQSVSSYLAWYQQKPGQAPRLLIYDASNRATGIPARFSGSGSGTDFTLTISSLEPEDFAVYYCQQSANWPPTFGGGTKVEIK
12 | binds | BIIB-12-1304 (antibody, V domains shown, IgG) VH: QVQLVESGGGVVQPGRSLRLSCAASGFTFSSYGMHWVRQAPGKGLEWVAVISYDGSNKYYADSVKGRFTISRDNSKNTLYLQMNSLRAEDTAVYYCAKGPGSRRFDIWGQGTMVTVSS VL: EIVMTQSPATLSVSPGERATLSCRASQSVSSNLAWYQQKPGQAPRLLIYGASTRATGIPARFSGSGSGTEFTLTISSLQSEDFAVYYCQQANVLPLTFGGGTKVEIK
13 | binds | BIIB-12-1289 (antibody, V domains shown, IgG) VH: QVQLVQSGAEVKKPGASVKVSCKASGYTFTSYYMHWVRQAPGQGLEWMGIINPGGGSTSYAQKFQGRVTMTRDTSTSTVYMELSSLRSEDTAVYYCARGPPRTYATGSHNWFDPWGQGTLVTVSS VL: not shown
14 | binds | BIIB-12-1291 (antibody, V domains shown, IgG) VH: QVQLVQSGAEVKKPGASVKVSCKASGYTFTSYYMHWVRQAPGQGLEWMGIINPSGGSTSYAQKFQGRVTMTRDTSTSTVYMELSSLRSEDTAVYYCARSRRMWVGYFDLWGRGTLVTVSS VL: EIVLTQSPATLSLSPGERATLSCRASQSVSSYLAWYQQKPGQAPRLLIYDASNRATGIPARFSGSGSGTDFTLTISSLEPEDFAVYYCQQRLNLPLTFGGGTKVEIK
15 | binds | BIIB-12-1301 (antibody, V domains shown, IgG) VH: QVQLVESGGGVVQPGRSLRLSCAASGFTFSSYGMHWVRQAPGKGLEWVAVISYDGSNKYYADSVKGRFTISRDNSKNTLYLQMNSLRAEDTAVYYCARTGNYGRGMPYWGQGTLVTVSS VL: EIVLTQSPATLSLSPGERATLSCRASQSVSSYLAWYQQKPGQAPRLLIYDASKRATGIPARFSGSGSGTDFTLTISSLEPEDFAVYYCQQSSSWPPTFGGGTKVEIK
16 | binds | BIIB-12-1292 (antibody, V domains shown, IgG) VH: QVQLVQSGAEVKKPGASVKVSCKASGYTFTSYYIHWVRQAPGQGLEWMGIINPSGGSTSYAQKFQGRVTMTRDTSTSTVYMELSSLRSEDTAVYYCARDPGRRQSSGFDYWGQGTLVTVSS VL: EIVMTQSPATLSLSPGERATLSCRASQSVSSYLAWYQQKPGQAPRLLIYDSSNRATGIPARFSGSGSGTDFTLTISSLEPEDFAVYYCQQRLNFPFTFGGGTKVEIK
17 | binds | BIIB-12-1297 (antibody, V domains shown, IgG) VH: QVQLVESGGGVVQPGRSLRLSCAASGFTFSSYGMHWVRQAPGKGLEWVAVISYDGSNKYYADSVKGRFTISRDNSKNTLYLQMNSLRAEDTAVYYCARSGGQTHRRSMDVWGQGTTVTVSS VL: EIVLTQSPATLSLSPGERATLSCRASQSVSRYLAWYQQKPGQAPRLLIYDASNRATGIPARFSGSGSGTDFTLTISSLEPEDFAVYYCQQGNNWPPTFGGGTKVEIK
18 | binds | BIIB-12-937 (antibody, V domains shown, IgG) VH: QVQLVQSGAEVKKPGASVKVSCKASGYTFTSYYMHWVRQAPGQGLEWMGIINPSGGSTSYAQKFQGRVTMTRDTSTSTVYMELSSLRSEDTAVYYCARPTRMLRSYGMDVWGQGTTVTVSS VL: not shown
